The values that follow come from patent publication US20220153819A1 (Regeneron, published 2022).

The target in assay [1] is T1, Influenza A group 1 HA Foldon.6×His (Influenza A virus (H1N1)).
T1 construct: also called HA-6×His; HA.6×His
Kind of assay: SPR (Biacore 8k), 25C; HA Foldon-6xHis captured via anti-His, bsAb injected.

The target of assay [2] is T1, Influenza A group 1 HA Foldon.6×His. The assay can be described thus: SPR (Biacore 8k), 37C; HA Foldon-6xHis captured via anti-His, bsAb injected. For orientation: SPR reads the build-up and loss of mass on a sensor chip optically.

B1: REGN6093, anti-Influenza HA x anti-C1q bispecific antibody (bispecific antibody, V domains shown)
VH 1: QVHLVQSGPEVKKPGSSVKVSCKASGVTFISHAISWVRQAPGQGLEWVGGIIAIFGTTNYAQKFQGRVTVTTDKSTNTVYMELSRLRSEDTAIYYCARGETYYEGNFDFWGQGTLVTVSS
VH 2: EVQLVESGGGVVQPGGSLRLSCAASGFSLDDYAMHWVRQTPGKGLEWVSLISGDGSRTSYADSVKGRFTISRDNSKNSLYLKMNSLRTEDTALYYCTKDPHNSNWFDPWGQGTLVTVSS
VL: not shown
notes: also called FluA group 1 x C1q bispecific; anti-HA x anti-C1q
One may read the Kd as the constant that tells how readily two partners part at equilibrium. Read a low Kd as a tighter complex. One may read the koff as the first-order rate constant of dissociation. Higher therefore signals a short-lived complex. As a reminder, the kon is the second-order rate constant of association. Lower therefore signals slow association. By t½ is commonly meant how long it takes for the measured level to halve. High values mean slow loss, low ones fast loss. As for B1, in assay [1], the affinity, expressed as Kd, was 1.11 nM; the off-rate (koff) turned out to be 0.000175 s⁻¹; the kon stood at 158000 M⁻¹ s⁻¹; the t1/2 was 1.1 h. For the same molecule, in assay [2], binding was put at a Kd of 0.519 nM, the off-rate constant (koff) was determined as 5.15e-05 s⁻¹, the on-rate (kon) was 99400 M⁻¹ s⁻¹ and the t½ stood at 3.74 h.
